Data taken from patent publication US9138474B2, “Composition comprising expression or activity inhibitors of Ninjurin1 for the prevention and treatment of inflammatory disease” (SNU R&DB FOUNDATION, priority 2008, dated 2015).

B1: rh-Ang1: recombinant human Ang1 (angiopoietin-1), R&D Systems (protein, UniProt Q15389 16-498, looked up)
Angiopoietin-1: HIGCSNQRRSPENSGRRYNRIQHGQCAYTFILPEHDGNCRESTTDQYNTNALQRDAPHVEPDFSSQKLQHLEHVMENYTQWLQKLENYIVENMKSEMAQIQQNAVQNHTATMLEIGTSLLSQTAEQTRKLTDVETQVLNQTSRLEIQLLENSLSTYKLEKQLLQQTNEILKIHEKNSLLEHKILEMEGKHKEELDTLKEEKENLQGLVTRQTYIIQELEKQLNRATTNNSVLQKQQLELMDTVHNLVNLCTKEGVLLKGGKREEEKPFRDCADVYQAGFNKSGIYTIYINNMPEPKKVFCNMDVNGGGWTVIQHREDGSLDFQRGWKEYKMGFGNPSGEYWLGNEFIFAITSQRQYMLRIELMDWEGNRAYSQYDRFHIGNEKQNYRLYLKGHTGTAGKQSSLILHGADFSTKDADNDNCMCKCALMLTGGWWFDACGPSNLNGMFYTAGQNHGKLNGIKWHYFKGPSYSLRSTTMMIRPLDF
B2: rh-Ang2: recombinant human Ang2 (angiopoietin-2), R&D Systems (protein, UniProt O15123 19-496, looked up)
Angiopoietin-2: YNNFRKSMDSIGKKQYQVQHGSCSYTFLLPEMDNCRSSSSPYVSNAVQRDAPLEYDDSVQRLQVLENIMENNTQWLMKLENYIQDNMKKEMVEIQQNAVQNQTAVMIEIGTNLLNQTAEQTRKLTDVEAQVLNQTTRLELQLLEHSLSTNKLEKQILDQTSEINKLQDKNSFLEKKVLAMEDKHIIQLQSIKEEKDQLQVLVSKQNSIIEELEKKIVTATVNNSVLQKQQHDLMETVNNLLTMMSTSNSAKDPTVAKEEQISFRDCAEVFKSGHTTNGIYTLTFPNSTEEIKAYCDMEAGGGGWTIIQRREDGSVDFQRTWKEYKVGFGNPSGEYWLGNEFVSQLTNQQRYVLKIHLKDWEGNEAYSLYEHFYLSSEELNYRIHLKGLTGTAGKISSISQPGNDFSTKDGDNDKCICKCSQMLTGGWWFDACGPSNLNGMYYPQRQNTNKFNGIKWYYWKGSGYSLKATTMMIRPADF

What was measured:
Wnt7b expression = Wnt7b expression (RT-PCR) in BV2 cells expressing Myc-Ninjurin1 treated with p38 inhibitor; format: cell-based, rodent; details: 0, 10, 30 uM, 24 hours
Method: Primary cultured human microvascular pericytes (Applied Cell Biology Research Institute) were cultured in Dulbecco's modified Eagle's medium (DMEM); Raw 264.7 cells (TIB-71™) and BV2 cells were cultured in DMEM; and HUVEC cells were cultured in M199 supplemented with 20% FBS (Invitrogen, Grand Island, N.Y.). Those cells were cultured at 37° C. in humid air composed of […] and 5% CO2. Raw cells and BV2 cells were transformed by using Lipofectamine Plus Reagent (Invitrogen). Cell lysate was prepared by using lysis buffer (40 mM Tris-Cl pH 8.4, 10 mM EDTA, 120 mM NaCl, 0.1% NP-40). To prepare culture solution to treat human microvascular pericytes, transformed macrophages were cultured in serum (FBS)-free DMEM for 24 hours, which were then filtered with 0.22 […] filter paper (Millipore), followed by 10 fold concentration using centrifugation filtering tube (Millipore). For the chemical treatment, cells were cultured at the density of 60-70% and then treated with Ang1 and Ang2 (500-1000 ng/ml) independently or together in serum free condition for 14-16 hours. To understand signal transduction pathway, cells were transformed with Mock or Ninjurin1 cDNA. Serum was depleted for 14-16 hours and then the cells were treated with SB203580 (Sigma), the p38 inhibitor, for 24 hours. […]

[1] = test system: rodent originated macrophages (Raw264.7, BV2); assay: Wnt7b and Ninjurin1 quantified by RT-PCR in macrophages in the presence of rh-Ang1 or rh-Ang2; format: cell-based; details: 0, 1 and 2.5 ug/ml
Method: Primary cultured human microvascular pericytes (Applied Cell Biology Research Institute) were cultured in Dulbecco's modified Eagle's medium (DMEM); Raw 264.7 cells (TIB-71™) and BV2 cells were cultured in DMEM; and HUVEC cells were cultured in M199 supplemented with 20% FBS (Invitrogen, Grand Island, N.Y.). Those cells were cultured at 37° C. in humid air composed of […] and 5% CO2. Raw cells and BV2 cells were transformed by using Lipofectamine Plus Reagent (Invitrogen). Cell lysate was prepared by using lysis buffer (40 mM Tris-Cl pH 8.4, 10 mM EDTA, 120 mM NaCl, 0.1% NP-40). To prepare culture solution to treat human microvascular pericytes, transformed macrophages were cultured in serum (FBS)-free DMEM for 24 hours, which were then filtered with 0.22 […] filter paper (Millipore), followed by 10 fold concentration using centrifugation filtering tube (Millipore). For the chemical treatment, cells were cultured at the density of 60-70% and then treated with Ang1 and Ang2 (500-1000 ng/ml) independently or together in serum free condition for 14-16 hours. To understand signal transduction pathway, cells were transformed with Mock or Ninjurin1 cDNA. Serum was depleted for 14-16 hours and then the cells were treated with SB203580 (Sigma), the p38 inhibitor, for 24 hours.
Particularly, RT-PCR and real time PCR were performed as follows: Transformed BV2 cells were cultured in DMEM supplemented with 1% serum for 2 days, and then RNA was extracted by using Trizol reagent (Invitrogen). Following primers were used for RT-PCR: Gapdh: forward primer 5′-[…]-3′ (SEQ. ID. NO: 4), reverse primer 5′-[…]-3′ (SEQ. ID. NO: 5); Ninjurin1: forward primer 5′-GAGTCGGGCACTGAGGA-3′ (SEQ. ID. NO: 6), reverse primer: 5′-GTTGCAGGGGTCTGGTCA-3′ (SEQ. ID. NO: 7); Ang1: forward primer 5′-[…]-3′ (SEQ. ID. NO: 8), reverse primer: 5′-[…]-3′ (SEQ. ID. NO: 9); Ang2: forward primer 5′-[…]-3′ (SEQ. ID. NO: 10), reverse primer: 5′-[…]-3′ (SEQ. ID. NO: 11); Wnt7b: forward primer 5′-[…]-3′ (SEQ. ID. NO: 12), reverse primer: 5′-[…]-3′ (SEQ. ID. NO: 13); Wnt7b: 2nd round forward primer 5′-[…]-3′ (SEQ. ID. NO: 14), reverse primer: 5′-[…]-3′ (SEQ. ID. NO: 15). The PCR products were separated on 1.2% agarose gel containing EtBr (ethidium bromide), followed by analysis by digital imaging. Primers used for real-time PCR were as follows: Ang2: forward primer 5′-[…]-3′ (SEQ. ID. NO: 16), reverse primer: 5′-[…]-3′ (SEQ. ID. NO: 17); Gapdh, Ang1 and Wnt7: same primers as used for RT-PCR were used. […]
To investigate interaction among Wnt7b, Ninjurin1, Ang1 and Ang2, Wnt7b and Ninjurin1 were quantified by RT-PCR in the presence of recombinant human Ang1 (rh-Ang1) and rh-Ang2 at different concentrations (0, 1 and 2.5 ug/ml) in rodent originated macrophages (Raw264.7, BV2).

Molecule	Wnt7b expression stimulated by Ninjurin1 (Wnt7b expression)	Ninjurin1 expression [1]	Wnt7b expression [1]
C[S+]([O-])c1ccc(-c2nc(-c3ccncc3)c(-c3ccc(F)cc3)[nH]2)cc1 (centres unmarked) [p38 inhibitor, SB203580]	reduced		
B1		reduced	reduced
B2		increased	increased
